# In the Immune Epitope Database (IEDB):
# Legend:
# [1] = target: HLA-A*02:01; experiment: IEDB peptide-MHC binding, purified MHC/competitive/fluorescence; ≥ and ≤ were set here for values at or beyond the usual limits of such assays; conditions: source organism: Zaire ebolavirus
# [2] = target: HLA-A*24:02; experiment: as above; conditions: source organism: Zaire ebolavirus
# [3] = target: HLA-B*07:02; experiment: as above; conditions: source organism: Zaire ebolavirus
# [4] = target: HLA-B*15:01; experiment: as above; conditions: source organism: Zaire ebolavirus
# [5] = target: HLA-B*07:02; experiment: IEDB peptide-MHC binding, purified MHC/direct/fluorescence; filed as Kd, often an IC50 or EC50 that approximates it; ≥ and ≤ were set here for values at or beyond the usual limits of such assays
# [6] = target: HLA-B*51:01; experiment: as above
# [7] = target: HLA-C*14:02; experiment: as above
# [8] = target: HLA-A*26:02; experiment: as above
# [9] = target: HLA-A*01:01; experiment: as above
# [10] = target: HLA-A*02:11; experiment: as above; conditions: source organism: Vibrio vulnificus YJ016
# [11] = target: HLA-A*11:01; experiment: as above
# [12] = target: HLA-A*26:03; experiment: as above; conditions: source organism: Vibrio vulnificus YJ016
# [13] = target: HLA-A*31:01; experiment: as above; conditions: source organism: Vibrio vulnificus YJ016
# [14] = target: HLA-A*68:02; experiment: as above
# [15] = target: HLA-A*69:01; experiment: as above; conditions: source organism: Vibrio vulnificus YJ016
# [16] = target: HLA-B*08:01; experiment: as above
# [17] = target: HLA-B*15:17; experiment: as above; conditions: source organism: Vibrio vulnificus YJ016
# [18] = target: HLA-B*18:01; experiment: as above
# [19] = target: HLA-B*57:01; experiment: as above
# [20] = target: HLA-B*58:01; experiment: as above; conditions: source organism: Vibrio vulnificus YJ016
# [21] = target: HLA-A*02:01; experiment: IEDB peptide-MHC binding, purified MHC/competitive/fluorescence; filed as Kd, often an IC50 or EC50 that approximates it; ≥ and ≤ were set here for values at or beyond the usual limits of such assays; conditions: source organism: Vibrio vulnificus YJ016
# [22] = target: HLA-A*02:03; experiment: as above; conditions: source organism: Vibrio vulnificus YJ016
# [23] = target: HLA-A*02:06; experiment: as above; conditions: source organism: Vibrio vulnificus YJ016
# [24] = target: HLA-A*30:01; experiment: as above; conditions: source organism: Vibrio vulnificus YJ016
# [25] = target: HLA-B*07:02; experiment: as above; conditions: source organism: Vibrio vulnificus YJ016
# [26] = target: HLA-B*39:01; experiment: as above
# [27] = target: HLA-A*26:01; experiment: IEDB peptide-MHC binding, purified MHC/direct/fluorescence; filed as Kd, often an IC50 or EC50 that approximates it; ≥ and ≤ were set here for values at or beyond the usual limits of such assays; conditions: source organism: Influenza A virus (A/goose/Hong Kong/8/1976(H1N1))
# [28] = target: HLA-B*08:01; experiment: IEDB peptide-MHC binding, purified MHC/competitive/fluorescence; ≥ and ≤ were set here for values at or beyond the usual limits of such assays; conditions: source organism: Zaire ebolavirus
# [29] = target: HLA-A*03:01; experiment: IEDB peptide-MHC binding, purified MHC/direct/fluorescence; filed as Kd, often an IC50 or EC50 that approximates it; ≥ and ≤ were set here for values at or beyond the usual limits of such assays; conditions: source organism: Zaire ebolavirus
# [30] = target: HLA-A*23:01; experiment: as above; conditions: source organism: Zaire ebolavirus
# [31] = target: HLA-A*29:02; experiment: as above; conditions: source organism: Zaire ebolavirus
# [32] = target: HLA-B*27:05; experiment: as above; conditions: source organism: Zaire ebolavirus
# [33] = target: HLA-B*44:02; experiment: as above; conditions: source organism: Zaire ebolavirus
# [34] = target: HLA-B*46:01; experiment: as above; conditions: source organism: Zaire ebolavirus
# [35] = target: HLA-A*26:01; experiment: IEDB peptide-MHC binding, purified MHC/competitive/fluorescence; filed as Kd, often an IC50 or EC50 that approximates it; ≥ and ≤ were set here for values at or beyond the usual limits of such assays; conditions: source organism: Zaire ebolavirus
# [36] = target: HLA-A*69:01; experiment: as above; conditions: source organism: Zaire ebolavirus
# [37] = target: HLA-B*27:03; experiment: as above; conditions: source organism: Zaire ebolavirus
# [38] = target: HLA-B*15:01; experiment: IEDB peptide-MHC binding, purified MHC/direct/fluorescence; filed as Kd, often an IC50 or EC50 that approximates it; ≥ and ≤ were set here for values at or beyond the usual limits of such assays; conditions: source organism: Yellow fever virus 17D
# [39] = source organism: Giardia lamblia ATCC 50803
# [40] = source organism: Vibrio vulnificus YJ016
# [41] = source organism: Zaire ebolavirus
sequence,measurement,setting,value
AAVSHLTTL,IC50,[1],1.05 µM
same,IC50,[2],2.25 µM
same,IC50,[3],21.7 µM
same,IC50,[4],16.5 µM
ATAQNRRAL,Kd,[5]; [39],0.0227 µM
same,Kd,[6]; [39],≥ 20 µM
same,Kd,[7]; [39],0.273 µM
DTITNVTTM,Kd,[8]; source organism: West Nile virus strain PTRoxo,≤ 0.001 µM
same,Kd,[7]; source organism: West Nile virus,1.65 µM
LLRRRPYPL,Kd,[9]; [40],≥ 20 µM
same,Kd,[10],≤ 0.001 µM
same,Kd,[11]; [40],≥ 20 µM
same,Kd,[8]; [40],≥ 20 µM
same,Kd,[12],≥ 20 µM
same,Kd,[13],≥ 20 µM
same,Kd,[14]; [40],≥ 20 µM
same,Kd,[15],≥ 20 µM
same,Kd,[16]; [40],0.003 µM
same,Kd,[17],≥ 20 µM
same,Kd,[18]; [40],≥ 20 µM
same,Kd,[19]; [40],≥ 20 µM
same,Kd,[20],≥ 20 µM
same,Kd,[21],0.105 µM
same,Kd,[22],0.0021 µM
same,Kd,[23],2.04 µM
same,Kd,[24],0.441 µM
same,Kd,[25],0.206 µM
same,Kd,[26]; [40],≥ 20 µM
LSPGMMMGM,Kd,[27],≥ 20 µM
same,Kd,[8]; source organism: Influenza B virus (B/Beijing/184/93),0.319 µM
RLAKLTEAI,IC50,[1],14.9 µM
same,IC50,[2],1.43 µM
same,IC50,[3],≥ 217 µM
same,IC50,[28],≥ 182 µM
same,IC50,[4],48 µM
same,Kd,[9]; [41],≥ 20 µM
same,Kd,[29],≥ 20 µM
same,Kd,[11]; [41],≥ 20 µM
same,Kd,[30],≥ 20 µM
same,Kd,[31],≥ 20 µM
same,Kd,[14]; [41],≥ 20 µM
same,Kd,[5]; [41],≥ 20 µM
same,Kd,[16]; [41],13.3 µM
same,Kd,[18]; [41],≥ 20 µM
same,Kd,[32],≥ 20 µM
same,Kd,[33],≥ 20 µM
same,Kd,[34],≥ 20 µM
same,Kd,[19]; [41],≥ 20 µM
same,Kd,[35],≥ 20 µM
same,Kd,[36],≥ 20 µM
same,Kd,[37],≥ 20 µM
same,Kd,[26]; [41],≥ 20 µM
SVAMCRTPF,Kd,[38],0.032 µM
same,Kd,[6]; source organism: Yellow fever virus 17D,≥ 20 µM
